Here are results for one substance from patent publication US20250224393A1.

The target of this assay is Recombinantly expressed GPIb protein fragment of a gain-of-function mutant of the human GPIb protein (human) (UniProt P07359). Kind of assay: latex agglutination VWF activity assay; HBR total protein up to 0.02 mg/mL in solution, comparison control.
UniProt P07359, sequence (P07359 other isoform, or with tags, fused parts or gaps mutant): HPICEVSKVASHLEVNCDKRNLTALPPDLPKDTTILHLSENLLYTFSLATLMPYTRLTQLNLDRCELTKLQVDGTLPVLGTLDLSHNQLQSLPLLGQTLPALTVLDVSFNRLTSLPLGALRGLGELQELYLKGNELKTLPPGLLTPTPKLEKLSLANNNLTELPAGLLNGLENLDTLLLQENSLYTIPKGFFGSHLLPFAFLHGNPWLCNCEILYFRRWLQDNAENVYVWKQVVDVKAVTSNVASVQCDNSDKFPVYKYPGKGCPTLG

Turning to “HBR-1 reagent (Heterophilic Blocking Reagent 1, Scantibodies Laboratory, Inc.) containing a mixture of mouse immunoglobulins”, the reduction of the VWF activity measured is < 2.6%.
